Experimental data taken from patent US20210253724A1 (Hoffmann-La Roche, published 2021).

What was measured:
[1] = molecular target: T1, human 4-1BB (CD137) on Jurkat-hu4-1BB-NFκB-luc2 reporter cells (human, UniProt Q07011 24-255); assay: cell-based or functional assay; design: AUC of NFκB-luciferase activation curve, no FAP+ cells / AUC of NFκB-luciferase activation curve, with WM-266-4 cells: unit not given beside the values
[2] = molecular target: T1, human 4-1BB (CD137) on …; assay: cell-based or functional assay
[3] = molecular target: T2, human FAP on NIH/3T3-huFAP clone 19 cells (human, UniProt Q12884 1-760); assay: flow cytometry on NIH/3T3-huFAP clone 19 cells
T2 construct: NIH/3T3 cells transfected with a plasmid encoding human FAP
Protocol: (§1) Plates were incubated for 30 minutes at 4° C. and washed once with 200 μL 4° C. cold DPBS buffer. […] Cells were washed twice with 200 μL 4° C. DPBS buffer and then resuspended in 50 μL/well DPBS containing 1% Formaldehyde for fixation. The same or the next day cells were resuspended in 100 μL FACS-buffer and acquired using MACSQuant Analyzer 10 (Miltenyi Biotec).

[4] = molecular target: T2, human FAP on NIH/3T3-huFAP clone 19 …; assay: flow cytometry on NIH/3T3-huFAP clone 19 cells; remark: listed apart in the source
Protocol: as §1

[5] = molecular target: T1, human 4-1BB (CD137) on …; assay: flow cytometry on Jurkat-hu4-1BB-NFκB-luc2 cells
Protocol: Plates were incubated for 30 minutes at 4° C. and washed once with 200 μL 4° C. cold DPBS buffer. […] Cells were washed twice with 200 μL 4° C. DPBS buffer and then resuspended in 50 μL/well DPBS containing 1% Formaldehyde for fixation. The same or the next day cells were resuspended in 100 μL FACS-buffer and acquired using MACSQuant Analyzer X (Miltenyi Biotec).

[6] = molecular target: T3, hu4-1BB-SNAP Tb-labeled expressed on transfected Hek cells (human, UniProt Q07011 24-255, Tb (terbium) label on the SNAP tag); assay: TR-FRET (TagLite) competition against d2-labeled 20H4.9 IgG1 (0.6 nM), after 4 h
T3 construct: SNAP-tag fusion of human 4-1BB; also called Tb hu4-1BB-SNAP

[7] = molecular target: T1, human 4-1BB (CD137) on …; assay: cell-based or functional assay; remark: listed apart in the source
[8] = molecular target: T1, human 4-1BB (CD137) on …; assay: cell-based or functional assay; design: AUC of NFκB-luciferase activation curve, no CEA+ cells / AUC of NFκB-luciferase activation curve, with CHO-k1-cynoCEACAM5 clone 8: unit not given beside the values
[9] = molecular target: T4, cynomolgus monkey CEACAM5 on CHO-k1-cynoCEACAM5 clone 8 cells (cynomolgus monkey); assay: flow cytometry on CHO-k1-cynoCEACAM5 clone 8; design: unit not given beside the values
T4 construct: whole, on cells

[10] = molecular target: T1, human 4-1BB (CD137) on …; assay: cell-based or functional assay; remark: listed apart in the source
human 4-1BB Fc(kih) = molecular target: T5, human 4-1BB Fc(kih) (human, UniProt P01857 104-328 = IgG part); assay: SPR (Biacore T200), human 4-1BB-Fc(kih) amine-coupled on a CM5 chip, antibody 150 nM as analyte 1
T5 construct: Monomeric Fc-linked antigen: 4-1BB ectodomain, AcTEV site, Fc knob and Avi tag, paired with an Fc hole chain; also called hu4-1BB-Fc(kih); human 4-1BB antigen Fc knob chain with Fc hole chain
T5 sequence (P01857 other isoform, or with tags, fused parts or gaps limits assumed): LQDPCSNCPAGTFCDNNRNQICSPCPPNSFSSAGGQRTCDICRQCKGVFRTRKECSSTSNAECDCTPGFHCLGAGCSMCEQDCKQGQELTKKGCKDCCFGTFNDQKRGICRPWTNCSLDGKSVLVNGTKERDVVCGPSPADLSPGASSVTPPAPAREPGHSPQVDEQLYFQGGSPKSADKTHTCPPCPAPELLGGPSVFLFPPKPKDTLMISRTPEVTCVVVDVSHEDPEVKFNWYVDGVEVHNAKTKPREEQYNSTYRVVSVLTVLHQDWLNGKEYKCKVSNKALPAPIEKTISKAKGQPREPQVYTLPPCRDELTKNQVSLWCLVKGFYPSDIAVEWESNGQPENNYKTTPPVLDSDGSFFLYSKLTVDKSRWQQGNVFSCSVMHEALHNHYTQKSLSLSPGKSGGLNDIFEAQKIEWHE
Protocol: All SPR experiments were performed on a Biacore T200 at 25° C. with HBS-EP as running buffer (0.01 M HEPES pH 7.4, 0.15 M NaCl, 3 mM EDTA, 0.005% Surfactant P20, Biacore, Freiburg/Germany). […] Immobilization level of approx. 900 RU was used.
The dissociation was monitored for 240 sec. Bulk refractive index differences were corrected for by subtracting the response obtained in a reference flow cell, where no protein was immobilized.

B1: Anti-FAP (4B9) huIgG1 P329GLALA (antibody, V domains shown)
VH: EVQLLESGGGLVQPGGSLRLSCAASGFTFSSYAMSWVRQAPGKGLEWVSAIIGSGASTYYADSVKGRFTISRDNSKNTLYLQMNSLRAEDTAVYYCAKGWFGGFNYWGQGTLVTVSS
VL: EIVLTQSPGTLSLSPGERATLSCRASQSVTSSYLAWYQQKPGQAPRLLINVGSRRATGIPDRFSGSGSGTDFTLTISRLEPEDFAVYYCQQGIMLPPTFGQGTKVEIK
AUC of NFκB-luciferase activation curve, no FAP+ cells [1]: 181
AUC of NFκB-luciferase activation curve, with NIH/3T3-huFAP clone 19 cells [1]: 195
AUC of NFκB-luciferase activation curve, with WM-266-4 cells [1]: 191

B2: 2+1 H2H 4-1BB (20H4.9)/FAP (4B9) P329GLALA IgG1 (bispecific antibody)
heavy 1: QVQLQQWGAGLLKPSETLSLTCAVYGGSFSGYYWSWIRQSPEKGLEWIGEINHGGYVTYNPSLESRVTISVDTSKNQFSLKLSSVTAADTAVYYCARDYGPGNYDWYFDLWGRGTLVTVSSASTKGPSVFPLAPSSKSTSGGTAALGCLVEDYFPEPVTVSWNSGALTSGVHTFPAVLQSSGLYSLSSVVTVPSSSLGTQTYICNVNHKPSNTKVDEKVEPKSCDKTHTCPPCPAPEAAGGPSVFLFPPKPKDTLMISRTPEVTCVVVDVSHEDPEVKFNWYVDGVEVHNAKTKPREEQYNSTYRVVSVLTVLHQDWLNGKEYKCKVSNKALGAPIEKTISKAKGQPREPQVCTLPPSRDELTKNQVSLSCAVKGFYPSDIAVEWESNGQPENNYKTTPPVLDSDGSFFLVSKLTVDKSRWQQGNVFSCSVMHEALHNHYTQKSLSLSP
heavy 2: not shown
light 1: not shown
light 2: EVQLLESGGGLVQPGGSLRLSCAASGFTFSSYAMSWVRQAPGKGLEWVSAIIGSGASTYYADSVKGRFTISRDNSKNTLYLQMNSLRAEDTAVYYCAKGWFGGFNYWGQGTLVTVSSASVAAPSVFIFPPSDEQLKSGTASVVCLLNNFYPREAKVQWKVDNALQSGNSQESVTEQDSKDSTYSLSSTLTLSKADYEKHKVYACEVTHQGLSSPVTKSFNRGEC
notes: Bivalent for 4-1BB, monovalent for FAP (cross-Fab fused head to head); also called 4-1BB (20H.9)×FAP 2+1 H2H; anti-4-1BB (20H4.9)×anti-FAP (4B9) 2+1 H2H huIgG1 P329GLALA
EC50 of NFκB-luciferase activation curve, with NIH/3T3-huFAP clone 19 cells [2]: 0.02 nM
EC50 of NFκB-luciferase activation curve, with WM-266-4 cells [2]: 0.06 nM
AUC of NFκB-luciferase activation curve, no FAP+ cells [1]: 715
AUC of NFκB-luciferase activation curve, with NIH/3T3-huFAP clone 19 cells [1]: 109000
AUC of NFκB-luciferase activation curve, with WM-266-4 cells [1]: 49400
EC50 [3]: 1.81 nM
AUC [4]: 40200
EC50 [5]: 0.062 nM
IC50 [6]: 1.9 nM

B3: 2+1 H2H 4-1BB (20H4.9)/CEA (A5H1EL1D) huIgG1 P329GLALA (bispecific antibody)
heavy 1: B2 heavy 1
heavy 2: not shown
light 1: not shown
light 2: EVQLLESGGGLVQPGGSLRLSCAASGFTFTDYYMNWVRQAPGKGLEWLGFIGNKANAYTTEYSASVKGRFTISRDKSKNTLYLQMNSLRAEDTATYYCTRDRGLRFYFDYWGQGTTVTVSSASVAAPSVFIFPPSDEQLKSGTASVVCLLNNFYPREAKVQWKVDNALQSGNSQESVTEQDSKDSTYSLSSTLTLSKADYEKHKVYACEVTHQGLSSPVTKSFNRGEC
notes: also called 2+1 H2H anti-4-1BB (20H4.9)×anti-CEA (A5H1EL1D) huIgG1 P329GLALA
EC50 of NFκB-luciferase activation curve, no CEA+ cells [7]: 0.09 nM
EC50 of NFκB-luciferase activation curve, with CHO-k1-cynoCEACAM5 clone 8 [7]: 0.1 nM
EC50 of NFκB-luciferase activation curve, with CHO-k1-humanCEACAM5 clone 11 [7]: 0.05 nM
EC50 of NFκB-luciferase activation curve, with CHO-k1-humanCEACAM5 clone 12 [7]: 0.04 nM
AUC of NFκB-luciferase activation curve, no CEA+ cells [8]: 1130
AUC of NFκB-luciferase activation curve, with CHO-k1-cynoCEACAM5 clone 8 [8]: 26500
AUC of NFκB-luciferase activation curve, with CHO-k1-humanCEACAM5 clone 11 [8]: 58100
AUC of NFκB-luciferase activation curve, with CHO-k1-humanCEACAM5 clone 12 [8]: 56600
AUC [9]: 614

B4: 1+1 4-1BB (20H4.9)/PD-L1 human IgG1 PGLALA (bispecific antibody)
heavy 1: B2 heavy 1
heavy 2: not shown
light 1: not shown
light 2: not shown
notes: Monovalent for 4-1BB and for PD-L1; also called 1+1 anti-4-1BB (20H4.9)×anti-PD-L1 huIgG1 P329GLALA; 1+1 H2H 4-1BB (20H4.9)/PD-L1 human IgG1 PGLALA
EC50 of NFκB-luciferase activation curve, with MKN45-huPD-L1 cells [10]: 0.1 nM
binding result (human 4-1BB Fc(kih)): binds

B5: 2+1 H2H 4-1BB (20H4.9)/PD-L1 human IgG1 PGLALA (bispecific antibody)
heavy 1: B2 heavy 1
heavy 2: not shown
light 1: not shown
light 2: not shown
EC50 of NFκB-luciferase activation curve, with MKN45-huPD-L1 cells [10]: 0.04 nM

B6: 2+1 H2H 4-1BB (20H4.9)/CEA (MFE23) huIgG1 P329GLALA (bispecific antibody)
heavy 1: B2 heavy 1
heavy 2: not shown
light 1: not shown
light 2: QVKLQQSGAELVRSGTSVKLSCTASGFNIKDSYMHWLRQGPEQGLEWIGWIDPENGDTEYAPKFQGKATFTTDTSSNTAYLQLSSLTSEDTAVYYCNEGTPTGPYYFDYWGQGTTVTVSSASVAAPSVFIFPPSDEQLKSGTASVVCLLNNFYPREAKVQWKVDNALQSGNSQESVTEQDSKDSTYSLSSTLTLSKADYEKHKVYACEVTHQGLSSPVTKSFNRGEC
notes: also called 2+1 H2H anti-4-1BB (20H4.9)×anti-CEA (MFE23) huIgG1 P329GLALA
EC50 of NFκB-luciferase activation curve, no CEA+ cells [7]: 0.1 nM
EC50 of NFκB-luciferase activation curve, with CHO-k1-cynoCEACAM5 clone 8 [7]: 0.14 nM
EC50 of NFκB-luciferase activation curve, with CHO-k1-humanCEACAM5 clone 11 [7]: 0.02 nM
EC50 of NFκB-luciferase activation curve, with CHO-k1-humanCEACAM5 clone 12 [7]: 0.02 nM
AUC of NFκB-luciferase activation curve, no CEA+ cells [8]: 774
AUC of NFκB-luciferase activation curve, with CHO-k1-cynoCEACAM5 clone 8 [8]: 802
AUC of NFκB-luciferase activation curve, with CHO-k1-humanCEACAM5 clone 11 [8]: 76200
AUC of NFκB-luciferase activation curve, with CHO-k1-humanCEACAM5 clone 12 [8]: 72300
AUC [9]: 169

B7: 4-1BB (20H4.9)/FAP (4B9) P329GLALA IgG1 2+1 VH/VL (C-terminal) (bispecific antibody)
heavy 1: QVQLQQWGAGLLKPSETLSLTCAVYGGSFSGYYWSWIRQSPEKGLEWIGEINHGGYVTYNPSLESRVTISVDTSKNQFSLKLSSVTAADTAVYYCARDYGPGNYDWYFDLWGRGTLVTVSSASTKGPSVFPLAPSSKSTSGGTAALGCLVKDYFPEPVTVSWNSGALTSGVHTFPAVLQSSGLYSLSSVVTVPSSSLGTQTYICNVNHKPSNTKVDKKVEPKSCDKTHTCPPCPAPEAAGGPSVFLFPPKPKDTLMISRTPEVTCVVVDVSHEDPEVKFNWYVDGVEVHNAKTKPREEQYNSTYRVVSVLTVLHQDWLNGKEYKCKVSNKALGAPIEKTISKAKGQPREPQVCTLPPSRDELTKNQVSLSCAVKGFYPSDIAVEWESNGQPENNYKTTPPVLDSDGSFFLVSKLTVDKSRWQQGNVFSCSVMHEALHNHYTQKSLSLSPGGGGGSGGGGSGGGGSGGGGSEVQLLESGGGLVQPGGSLRLSCAASGFTFSSYAMSWVRQAPGKGLEWVSAIIGSGASTYYADSVKGRFTISRDNSKNTLYLQMNSLRAEDTAVYYCAKGWFGGFNYWGQGTLVTVSS
heavy 2: not shown
light: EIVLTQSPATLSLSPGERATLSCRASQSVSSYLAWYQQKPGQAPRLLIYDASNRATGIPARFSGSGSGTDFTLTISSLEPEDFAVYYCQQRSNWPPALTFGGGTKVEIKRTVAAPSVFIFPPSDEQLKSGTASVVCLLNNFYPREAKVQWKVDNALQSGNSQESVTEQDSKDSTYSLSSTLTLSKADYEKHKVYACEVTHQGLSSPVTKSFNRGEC
notes: Control format: FAP VH and VL fused to the C-termini of the heavy chains; also called 2+1 VH/VL anti-4-1BB (20H4.9)×anti-FAP (4B9) huIgG1 P329GLALA; 2+1 (C-terminal)
EC50 of NFκB-luciferase activation curve, with NIH/3T3-huFAP clone 19 cells [2]: 0.008 nM
EC50 of NFκB-luciferase activation curve, with WM-266-4 cells [2]: 0.028 nM
AUC of NFκB-luciferase activation curve, no FAP+ cells [1]: 4360
AUC of NFκB-luciferase activation curve, with NIH/3T3-huFAP clone 19 cells [1]: 95100
AUC of NFκB-luciferase activation curve, with WM-266-4 cells [1]: 30900
EC50 [3]: 3.94 nM
AUC [4]: 21200
IC50 [6]: 2.5 nM
